In patent US20200254053A1:
No end group written: not given here. dPEG24 = 24 PEG moieties

Target: C1q as present in the human serum or plasma of the hemolytic assays (human) (UniProt P02745)
Experiment: cell-based or functional assay

UniProt P02745, sequence (P02745 23-245 limits assumed, chain 1 of 3): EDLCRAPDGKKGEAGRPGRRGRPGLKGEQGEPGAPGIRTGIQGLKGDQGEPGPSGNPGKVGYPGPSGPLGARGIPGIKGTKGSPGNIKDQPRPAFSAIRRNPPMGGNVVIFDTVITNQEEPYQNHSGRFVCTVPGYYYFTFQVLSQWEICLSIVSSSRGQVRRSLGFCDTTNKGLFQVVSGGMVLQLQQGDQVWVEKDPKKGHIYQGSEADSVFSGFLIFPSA
UniProt P02745, sequence (P02746 28-253 limits assumed, chain 2 of 3, further chain): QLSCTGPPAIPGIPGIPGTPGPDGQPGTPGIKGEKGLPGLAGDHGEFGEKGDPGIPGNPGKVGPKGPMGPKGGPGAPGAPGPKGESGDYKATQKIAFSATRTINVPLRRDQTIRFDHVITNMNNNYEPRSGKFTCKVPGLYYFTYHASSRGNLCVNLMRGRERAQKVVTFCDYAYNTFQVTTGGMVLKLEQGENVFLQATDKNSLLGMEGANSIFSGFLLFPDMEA
UniProt P02745, sequence (P02747 29-245 limits assumed, chain 3 of 3, further chain): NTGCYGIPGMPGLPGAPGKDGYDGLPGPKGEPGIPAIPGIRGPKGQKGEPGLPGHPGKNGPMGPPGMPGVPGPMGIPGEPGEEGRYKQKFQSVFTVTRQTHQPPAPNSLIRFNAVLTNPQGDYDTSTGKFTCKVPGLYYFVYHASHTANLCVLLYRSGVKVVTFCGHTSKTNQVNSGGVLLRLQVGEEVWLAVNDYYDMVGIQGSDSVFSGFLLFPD

In the case of IALILEPICCQERAA-dPEG24 (cysteine pairing not given here) [PA-dPEG24], the Hemolysis in presence of PA-dPEG24 (Abs 412 nm), type-O donor #1 plasma with B+ erythrocytes (0.747 without peptide) is reported as 0.008 Abs 412 nm and the inhibition of hemolysis, type-O plasma with type-B erythrocytes, dose response (FIG. 8) is reported as over 95%.
